# Reference: IntAct's records for PubMed 29039417
# B1: Protein PTHB1 (Homo sapiens), Q3SYG4 (parent)
# chain: MSLFKARDWWSTILGDKEEFDQGCLCLANVDNSGNGQDKIIVGSFMGYLRIFSPHPAKTGDGAQAEDLLLEVDLRDPVLQVEVGKFVSGTEMLHLAVLHSRKLCVYSVSGTLGNVEHGNQCQMKLMYEHNLQRTACNMTYGSFGGVKGRDLICIQSMDGMLMVFEQESYAFGRFLPGFLLPGPLAYSSRTDSFLTVSSCQQVESYKYQVLAFATDADKRQETEQQKLGSGKRLVVDWTLNIGEQALDICIVSFNQSASSVFVLGERNFFCLKDNGQIRFMKKLDWSPSCFLPYCSVSEGTINTLIGNHNNMLHIYQDVTLKWATQLPHIPVAVRVGCLHDLKGVIVTLSDDGHLQCSYLGTDPSLFQAPNVQSRELNYDELDVEMKELQKIIKDVNKSQGVWPMTEREDDLNVSVVVSPNFDSVSQATDVEVGTDLVPSVTVKVTLQNRVILQKAKLSVYVQPPLELTCDQFTFEFMTPDLTRTVSFSVYLKRSYTPSELEGNAVVSYSRPTDRNPDGIPRVIQCKFRLPLKLICLPGQPSKTASHKITIDTNKSPVSLLSLFPGFASQSDDDQVNVMGFHFLGGARITVLASKTSQRYRIQSEQFEDLWLITNELILRLQEYFEKQGVKDFACSFSGSIPLQEYFELIDHHFELRINGEKLEELLSERAVQFRAIQRRLLARFKDKTPAPLQHLDTLLDGTYKQVIALADAVEENQGNLFQSFTRLKSATHLVILLIALWQKLSADQVAILEAAFLPLQEDTQELGWEETVDAAISHLLKTCLSKSSKEQALNLNSQLNIPKDTSQLKKHITLLCDRLSKGGRLCLSTDAAAPQTMVMPGGCTTIPESDLEERSVEQDSTELFTNHRHLTAETPRPEVSPLQGVSE
# partner: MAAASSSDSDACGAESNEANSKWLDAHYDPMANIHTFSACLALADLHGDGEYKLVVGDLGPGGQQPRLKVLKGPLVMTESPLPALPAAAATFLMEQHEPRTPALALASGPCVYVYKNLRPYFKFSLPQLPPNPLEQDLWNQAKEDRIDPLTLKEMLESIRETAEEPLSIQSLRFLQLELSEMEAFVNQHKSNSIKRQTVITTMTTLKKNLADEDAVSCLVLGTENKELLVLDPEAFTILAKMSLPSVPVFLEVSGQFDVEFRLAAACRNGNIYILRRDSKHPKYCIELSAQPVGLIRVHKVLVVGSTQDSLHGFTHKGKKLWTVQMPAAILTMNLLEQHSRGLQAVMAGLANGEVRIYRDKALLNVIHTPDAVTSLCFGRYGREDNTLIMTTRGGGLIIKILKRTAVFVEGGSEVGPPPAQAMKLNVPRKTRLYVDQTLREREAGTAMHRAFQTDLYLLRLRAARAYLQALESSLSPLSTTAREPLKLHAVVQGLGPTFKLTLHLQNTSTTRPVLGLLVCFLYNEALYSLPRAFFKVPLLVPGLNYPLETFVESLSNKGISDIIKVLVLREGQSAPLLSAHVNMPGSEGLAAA
# Variants of: B1
# Details: with bbs1_human BBS1, Q8NFJ9
row,Variant,effect of a mutation on the interaction
1,K803E,with no effect
2,K803A,with no effect
3,S828A,with no effect
4,S828E,with no effect
5,S828K,with no effect
6,L815A,with no effect
7,L815K,with no effect
8,L815E,with no effect
9,L814E,with no effect
10,L814A,with no effect
11,L814K,with no effect
12,L808K,with no effect
13,L808E,with no effect
14,L808A,with no effect
15,D830E,with no effect
16,D830A,with no effect
17,D830K,with no effect
18,H811E,with no effect
19,H811A,with no effect
20,H811K,with no effect
21,G823A,with no effect
22,G823E,with no effect
23,G823K,with no effect

row,Variant,effect of a mutation on the interaction
1,Q807A,with no effect
2,Q807E,with no effect
3,Q807K,with no effect
4,D804F,disrupting interaction strength
5,D804A,with no effect
6,D804E,with no effect
7,D804K,with no effect
8,T813K,with no effect
9,T813A,with no effect
10,T813E,with no effect
11,L827E,with no effect
12,L827K,with no effect
13,L827A,with no effect
14,A832K,with no effect
15,A832E,with no effect
16,L819K,disrupting interaction strength
17,L819E,with no effect
18,L819A,with no effect
19,C816A,with no effect
20,C816E,with no effect
21,C816K,with no effect
22,T829A,with no effect
23,T829K,with no effect

row,Variant,effect of a mutation on the interaction
1,T829E,with no effect
2,K809A,with no effect
3,K809E,disrupting interaction strength
4,G822E,with no effect
5,G822K,with no effect
6,G822A,with no effect
7,P802E,with no effect
8,P802K,with no effect
9,P802A,with no effect
10,P802T,disrupting interaction strength
11,D817E,with no effect
12,D817K,with no effect
13,D817A,with no effect
14,D817N,disrupting interaction strength
15,K821A,with no effect
16,K821E,with no effect
17,R824K,with no effect
18,R824E,with no effect
19,R824A,with no effect
20,S820E,with no effect
21,S820A,with no effect
22,S820K,with no effect
23,I801E,with no effect

row,Variant,effect of a mutation on the interaction
1,I801K,with no effect
2,L825A,with no effect
3,L825E,with no effect
4,L825K,with no effect
5,C826K,with no effect
6,C826A,with no effect
7,C826E,with no effect
8,K810A,with no effect
9,K810E,with no effect
10,T805K,with no effect
11,T805A,with no effect
12,T805E,with no effect
13,A831K,with no effect
14,A831E,with no effect
15,I812K,with no effect
16,I812A,with no effect
17,I812E,with no effect
18,R818E,with no effect
19,R818K,with no effect
20,R818A,with no effect
21,S806K,with no effect
22,S806E,with no effect
23,S806A,with no effect
